First the molecules themselves.
B1: MBP–FDc(T282E), N-terminal MBP-fused, truncated FD (amino acids 215–285) [Arabidopsis thaliana] / itself (parent)
chain: NRRHKRMIKNRESAARSRARKQAYTNELELEVAHLQAENARLKRQQDQLKMAAAIQQPKKNTLQRSSEAPF
B2: MBP–FDc(T282E), N-terminal MBP-fused, truncated FD (amino acids 215–285) [Arabidopsis thaliana] / GRF7 (14-3-3ν), recombinant [Arabidopsis thaliana] (parent)
chain 1: B1 chain
chain 2: MSSSREENVYLAKLAEQAERYEEMVEFMEKVAKTVDTDELTVEERNLLSVAYKNVIGARRASWRIISSIEQKEESRGNDDHVSIIKDYRGKIETELSKICDGILNLLDSHLVPTASLAESKVFYLKMKGDYHRYLAEFKTGAERKEAAESTLVAYKSAQDIALADLAPTHPIRLGLALNFSVFYYEILNSPDRACSLAKQAFDEAISELDTLGEESYKDSTLIMQLLRDNLTLWNSDINDEAGGDEIKEASKHEPEEGKPAETGQ

For nine variants, screen value results are on record in paper PMC12711580, “Florigen activation complex forms via multifaceted assembly in Arabidopsis” (Nature, 2025).

The variants in the first assay derive from B1. The assay is described as follows: SEC-MALS. The note with it: with itself. (In general: Size exclusion chromatography separates by hydrodynamic size, large species first.)
As for chain 1 L35A, the screen value stood at 55 kD. With chain 1 L42A, the screen value turned out to be 55 kD. Regarding chain 1 L49A, the screen value was determined as 55 kD.

In the case of chain 1 Y24A E29A, the screen value came to 55 kD.

For the variant chain 1 L28A, the screen value came out at 55 kD.

The variants in a further assay derive from B2. Description: SEC-MALS. The note with it: with GRF7 (14-3-3ν), free GRF7 peak marked 60 kD.
As for chain 1 L49A, the screen value was 168 kD. For the variant chain 1 L42A, the screen value was found to be 117 kD. The same measure, in the same setting: the figure for chain 1 L35A is 116 kD. As for chain 1 Y24A E29A, the screen value amounted to 117 kD.
